In patent US20260234660A1, “TREATMENT OF MUSCLE RELATED DISORDERS WITH ANTI-HUMAN CACNG1 ANTIBODIES” (Regeneron Pharmaceuticals, Inc., priority 2023, published 2026):

Columns and labels:
[1] = system: wildtype or CACNG1 knockout myofibers; assay: Antibody binding to single myofibers ex vivo; assay type: cell-based, mouse; details: 100 nM antibody, 30 minutes
Description: (§1) Following confirmation of CACNG1 antibody binding to human myotubes, a subset of antibodies was tested for binding to fully mature myofibers ex vivo. Single myofibers were isolated from either wildtype mice, mice that were homozygous for the deletion of CACNG1 (referred to as CACNG1 knockout mice), or mice that were homozygous for the expression of human CACNG1 in place of mouse CACNG1 (referred to as CACNG1^Hu/Hu). The gastrocnemius muscle was removed, collagenase digested, and single myofibers were isolated, washed, and incubated overnight at 37° C. at 5% C02, in DMEM+10% horse serum. Following overnight incubation, single myofibers were incubated with 100 nM of each CACNG1 antibody or an isotype control antibody for 30 minutes. Myofibers were then washed twice in DMEM+10% horse serum, and subsequently incubated with 10 ug/mL of fluorescent-conjugated secondary antibodies for 30 minutes, washed twice in DMEM+10% horse serum, and then fixed with 4% paraformaldehyde (PFA) for 15 minutes at room temperature. Single fibers were then washed twice with PBS, stained with Hoechst for 5 minutes, washed once more with PBS, then transferred to microscope slides, coverslipped, and imaged using a Zeiss LSM 710 confocal microscope.

CACNG1^Hu/Hu myofibers = assay: Antibody binding to single myofibers ex vivo; assay type: cell-based, mouse; details: 100 nM antibody, 30 minutes
Description: as §1

human CACNG1 nanodisc = biological target: T1, human CACNG1 nanodisc (Homo sapiens, UniProt Q06432); assay: Biacore binding kinetics of anti-CACNG1 monoclonal antibodies to human CACNG1 nanodisc, antigen capture format; details: 25° C., 1:1 binding model
T1 construct: made in house
Description: Equilibrium dissociation constants (KD values) for nanodisc embedded human CACNG1 expressed with a C-terminal PADRE-Flag-His tag (human CACNG1 nanodisc) binding to purified anti-hCACNG1 antibodies were determined using a real-time surface plasmon resonance biosensor technology with a Biacore T200 instrument. The CM5 Biacore sensor surface was derivatized by amine coupling with a monoclonal mouse anti-His antibody (Cytiva; Marlborough, MA). All Biacore binding studies were performed in a buffer composed of 0.01M HEPES, 0.15M NaCl, 1 mM CaCl2), 0.5 mM MgCl2, pH 7.4 (HBS-N++ running buffer). Different concentrations of anti-hCACNG1 antibodies (ranging from 300 nM to 12 nM in 5-fold serial dilutions) prepared in HBS-N++ running buffer were injected over the captured human CACNG1 nanodisc at a flow rate of 30 μL/minute. Antibody association was monitored for 2 minutes while dissociation was monitored in HBS-N++ running buffer for 5 minutes. At the end of each cycle, the human CACNG1 nanodisc capture surface was regenerated using three 10 second injections of 10 mM Gly pH1.5. All binding kinetics experiments were performed at 25° C.
The specific SPR-Biacore sensorgrams were obtained by a double referencing procedure. The double referencing was performed by first subtracting the signal of each injection over a reference surface (anti-His) from the signal over the experimental surface (anti-His captured human CACNG1 nanodisc) thereby removing contributions from refractive index changes. In addition, running buffer injections were performed to allow subtraction of the signal changes resulting from the dissociation of captured antibodies from the coupled anti-His surface. Kinetic association (ka) and dissociation (kd) rate constants were determined by fitting the real-time sensorgrams to a 1:1 binding model using Scrubber v2.0c curve fitting software. Binding dissociation equilibrium constants (KD) and dissociative half-lives (t1/2) were calculated from the kinetic rate constants as: […]

human myotubes = assay: Acetylcholine-induced calcium flux assay in human myotubes (FLIPR); assay type: cell-based; details: antibody 0.01 μM to 1 μM, 1 hour incubation, 20 uM acetylcholine
Description: CACNG1 is the γ1 subunit of the skeletal muscle specific L-type calcium channel, (dihydropyridine receptor), though genetic deletion of CACNG1 appears to have no major impact on skeletal muscle function. To determine whether antibodies that bind CACNG1 impact muscle function, a calcium flux assay was performed on human myotubes that were incubated with CACNG1 antibodies to determine whether these antibodies affect acetylcholine-induced calcium release.
Human skeletal myoblasts (Cook Myosite, Inc.) were plated at 10,000 cells/well of a 96-well plate and were differentiated for 7 days into myotubes. On the final day of differentiation, media was replaced with 50 μL of FLIPR calcium 5 dye with probenecid (Invitrogen) and 50 uL of assay buffer (0.1% BSA-DMEM) per well. CACNG1 and isotype control antibodies were serial diluted in assay buffer and added to the cells and incubated at 37° C. in a 5% CO2 incubator for 1 hour prior to the calcium flux assay. Nicardipine hydrochloride (Sigma) was added to untreated wells to serve as a control for calcium channel blockade. After 1 hour, acetylcholine (Sigma) was added at a 20 uM final concentration to induce myotube calcium release, and plates were assayed on a FLIPR Tetra (Molecular Devices, LLC).

T1 sequence (Q06432 whole entry): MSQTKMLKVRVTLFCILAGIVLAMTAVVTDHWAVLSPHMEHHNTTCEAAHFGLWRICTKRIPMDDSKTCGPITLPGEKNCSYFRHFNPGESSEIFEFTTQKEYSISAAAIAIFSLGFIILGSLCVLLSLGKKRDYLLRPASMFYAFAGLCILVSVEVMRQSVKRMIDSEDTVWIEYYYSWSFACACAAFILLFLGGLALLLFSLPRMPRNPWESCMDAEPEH

| Molecule | binding to wildtype or CACNG1 knockout myofibers [1] | binding to CACNG1^Hu/Hu myofibers ex vivo (CACNG1^Hu/Hu myofibers) | ka (human CACNG1 nanodisc) [M⁻¹ s⁻¹] | kd (human CACNG1 nanodisc) [s⁻¹] | effect on acetylcholine-induced calcium flux (human myotubes) |
| --- | --- | --- | --- | --- | --- |
| H2aM31941N: anti-hCACNG1 antibody, HCVR/LCVR SEQ ID NOs: 114/122 (antibody, V domains shown) VH: QVQLVQSGAEVKKPGASVKVSCKASGYAFTTYGITWVRQAPGQGLEWMGWISAYNGNTNYAEKVQGRFTMTTDTSTNTAYMELRSLRSDDTAVYFCARKGHYGSGTYYNPFGFDFWGQGTMVTVSS VL: EIMLMQSPGTLSLSPGERATLSCRASQSVSSSYLAWYQQKPGQAPRLLIYGASSRATDIPDRFSGSGSGTDFTLTISRLEPEDFAVYFCQQYYGSPWTFGQGTKVEIK | did not bind to wildtype or CACNG1 knockout myofibers | demonstrated binding to CACNG1^Hu/Hu myofibers ex vivo | 342000 | 0.000406 | – |
| REGN10717: anti-hCACNG1 antibody, HCVR/LCVR SEQ ID NOs: 34/42, wildtype hIgG1 (antibody, V domains shown, hIgG1) VH: QVQLVESGGGVVQPGRSLRLSCAASGFTFSTYGMHWVRQAPGKGLEWVAVIWHDGSDKYYVDSVKGRFSIARDNSKNTLYLQMNSLRVEDTGIYYCARRGIRGTVFDHWGLGTLVTVSS VL: DIQMTQSPSTLSASVGDRVTLTCRASQSISNKLAWYQQKPGKAPNLLIYKASNLESGVPSRFSGSGSGTEFTLTISSLQPDDFATYYCQQYNSYSWTFGQGTKVEIK | – | – | 294000 | 0.0304 | – |
| REGN10713: anti-hCACNG1 antibody, HCVR/LCVR SEQ ID NOs: 162/170, wildtype hIgG1 (antibody, V domains shown, hIgG1) VH: EVQLVESGGNLVQPGGSLRLSCAASGFTFTSHAMNWVRQAPGKGLEWVSVITGRGFDTHYADSVKGRFTISRDISKNTLYLQMNSLRAEDTAVYYCAKGLYDSGNYYIDYWGQGTLVTVSS VL: QSVLTQPPSVSAAPGQKVTISCSGSSSNIGNNYVSWYQQLPGTAPKLLIYDNNKRPSGIPDRFSGSKSGTSATLGITGLQTGDEADYYCGTWDLSLSFNWVFGGGTKLTVL | – | – | 74200 | 4.72e-05 | – |
| REGN10715: anti-hCACNG1 antibody, HCVR/LCVR SEQ ID NOs: 18/26, wildtype hIgG1 (antibody, V domains shown, hIgG1) VH: QVQLQQWGAGLLKPSATLSRTCAVYGGSFSGYYWNWIRQSPGKGLEWIGEILHSGRTNYNPSLKSRVTISVDTSKNQFSLKLTSVTAADTAVYYCAGRIAARHGWFDPWGQGTLVTVSS VL: DIQMTQSPSSVSTSVGDRVTISCRASQDIRKWLAWYQQKPGKAPKLLIYATSSLQSGVPSRFSGSGSGTDFTLTISSLQPEDFATYFCQQANSFPFTFGQGTKLEIK | – | – | 152000 | 0.000301 | – |
| REGN9909: anti-hCACNG1 antibody, HCVR/LCVR SEQ ID NOs: 146/154 (antibody, V domains shown) VH: EVQLLESGGGLVQPGGSLRLSCAASGFTFNNYGMSWVRQGPGKGLEWVSSISGSGGTTFYADSVKGRFTISRDNSKNTLYLQMNSLRAEDTAVYYCGKGGYCSSSGCRHYGMDVWGQGTTVTVSS VL: QSVLTQPPSASGTPGQRVTISCSGSSSNIGNNYIYWYQRLPGTTPKLLIYRNNQRPSGVPDRFSGSKSGTSASLAISGLRSEDEADYYCAAWDDTLSGYVFGTGTKVTVL | – | – | 331000 | 0.00137 | – |
| H2aM31944N: anti-hCACNG1 antibody, HCVR/LCVR SEQ ID NOs: 82/90 (antibody, V domains shown) VH: QVQLVESGGGVVQPGRSLRLSCEASGITFRNYGMHWVRQAPGKGLEWVAVMWYDGSNKYYADSVKGRFTISRDNSKNTVYLQMNSLRAEDTAVYYCARRGHIATAAPFDYWGQGTLVTVSS VL: DIQMTQSPSSLSASVGDRVTISCRASQSISSYLNWYQQKPGKAPKVLMYAASSLQSGVPSRFSGSGSGTDFTLTISSLQPEDFATYYCQQSYSTPPITFGQGTRLEIK | – | – | 231000 | 0.00395 | do not inhibit acetylcholine-induced calcium flux |
| REGN7660: anti-hCACNG1 antibody, HCVR/LCVR SEQ ID NOs: 130/138 (antibody, V domains shown) VH: EVQLVESGGGLVQPGGSLKLSCTASGLTLSDSAMHWVRQASGKGLEWVGRIRNKANRYATEYAASVKGRFTISRDDSKNTAYLQMNSLKTEDTAVYYCTRNWKIFLFDYWGQGTLVTVSS VL: EIVLTQSPGTLTLSPGERATLSCRASQSVGSKYLAWFQQKRGQAPRLLIYGASSRTSGIPDRISGSGSGTDFTLTISRLEPEDFAVYYCQQYGSSPWTFGQGTKVEIK | – | – | 1.93e+06 | 0.0243 | – |
| REGN10716: anti-hCACNG1 antibody, HCVR/LCVR SEQ ID NOs: 50/58, wildtype hIgG1 (antibody, V domains shown, hIgG1) VH: QVQLQESGPGLVKPSETLSLTCTVSGDSINNYYWTWLRQPPGKGLEWIGYIYYSGSANYNPSLKSRVTISVDTSKNQFSLKLNSVTAADTAVYYCARGAVKYFRHWGQGTLVTVSS VL: EIVLTQSPGTLSLSPGERATLSCRASQTINHNNLAWYQQRPGQAPRLLIYGASNRATAIPDRFSGSGSGTDFTLTISRLEPEDFEVYSCQQYGSLPLTFGGGTKVEIK | – | – | 730000 | 8.36e-05 | – |
